In US8613927B2, “High affinity human antibodies to human nerve growth factor” (Regeneron Pharmaceuticals, Inc., priority 2007, dated 2013):
Like-named read-outs stand apart in the source and are kept apart here.

Tests used:
[1] = biological target: Human NGF binding to human p75-hFc (Homo sapiens, UniProt P01138, DEL136-138/DEL208-209); experiment: BIACORE receptor blocking assay, free NGF bound to p75-hFc; details: percentage free NGF bound; NGF 10-25 nM with molar excess of antibody; NGF alone = 100%
Human NGF binding to human p75-hFc, sequence (P01138 with tags, fused parts or gaps DEL136-138/DEL208-209): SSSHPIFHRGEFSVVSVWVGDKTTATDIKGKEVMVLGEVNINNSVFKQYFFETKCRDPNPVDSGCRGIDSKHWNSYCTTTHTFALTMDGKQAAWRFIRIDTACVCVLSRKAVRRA
Text: To identify blocking antibodies, a receptor blocking assay was designed using a BIACORE™ 3000 instrument. Recombinant human TrkA-hFc and human p75-hFc proteins were amine-coupled to a CM5 chip to a density of about 5000-6000 RU.

[2] = biological target: T1, NT-3 signaling through p75 and TrkA in PC12 cell line (Homo sapiens, UniProt P20783); experiment: PC12 SRE-luciferase assay with 75 nM NT-3 instead of NGF; type: cell-based; details: read-out: IC50, blocking of NT-3 signaling
T1 construct: host or cells: NT-3 added exogenously; receptors endogenous in PC12 cells
T1 sequence (P20783 139-257): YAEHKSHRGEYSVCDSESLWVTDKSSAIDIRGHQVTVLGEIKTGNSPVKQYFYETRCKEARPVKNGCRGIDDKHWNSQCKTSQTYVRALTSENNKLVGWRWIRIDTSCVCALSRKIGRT
Experimental: The ability of NGF antibodies to block NGF signaling p75 and TrkA receptor-mediated activity was also measured in vitro using a rat adrenal medulla cell line, PC12, which express both receptors endogenously (Urdiales et al. 1998 J. Neuroscience 18(17):6767-6775). Briefly, PC12 cells were stably transfected with a reporter plasmid containing a serum response element (SRE) linked to a luciferase gene. The transfected cells were resuspended at approximately 2.5×10^5 cells per ml and plated at 50,000 cells per well in a 96-well tissue culture plate in Opti-MEM media overnight. The purified antibody proteins were serially diluted in medium (DMEM plus 0.1% BSA) and added to the plated cells at concentrations ranging from 0 to 100 nM. […] Luciferase activity was measured after incubating the cells for 6 hours at 37° C. in a humidified 7.5% CO2 incubator using BRIGHT GLOW™ luciferase assay system (Promega). Control mAb=RN624.

[3] = biological target: T2, Human NGF (PC12 cells, rat adrenal medulla cell line) (Homo sapiens, UniProt P01138, DEL136-138/DEL208-209); experiment: PC12 SRE-luciferase assay of NGF signaling through p75 and TrkA; type: cell-based
T2 construct: host or cells: NGF added exogenously; receptors endogenous in PC12 cells
T2 sequence (P01138 with tags, fused parts or gaps DEL136-138/DEL208-209): as the sequence (P01138 with tags, fused parts or gaps DEL136-138/DEL208-209) above
Experimental: The ability of NGF antibodies to block NGF signaling p75 and TrkA receptor-mediated activity was also measured in vitro using a rat adrenal medulla cell line, PC12, which express both receptors endogenously (Urdiales et al. 1998 J. Neuroscience 18(17):6767-6775). Briefly, PC12 cells were stably transfected with a reporter plasmid containing a serum response element (SRE) linked to a luciferase gene. The transfected cells were resuspended at approximately 2.5×10^5 cells per ml and plated at 50,000 cells per well in a 96-well tissue culture plate in Opti-MEM media overnight. The purified antibody proteins were serially diluted in medium (DMEM plus 0.1% BSA) and added to the plated cells at concentrations ranging from 0 to 100 nM. Human NGF was added to the wells to a final concentration of 12.5 pM. Luciferase activity was measured after incubating the cells for 6 hours at 37° C. in a humidified 7.5% CO2 incubator using BRIGHT GLOW™ luciferase assay system (Promega). Control mAb=RN624.

NGF [4] = biological target: T3, NGF (Homo sapiens, UniProt P01138, DEL136-138/DEL208-209); experiment: BIACORE cross-reactivity test, NGF injected at 20 nM; type: binding; details: Table 3; NGF 20 nM
T3 sequence (P01138 with tags, fused parts or gaps DEL136-138/DEL208-209): as the sequence (P01138 with tags, fused parts or gaps DEL136-138/DEL208-209) above
Experimental: (§1) The anti-NGF antibodies were examined for binding cross-reactivity with human NT-3. Briefly, goat anti-human IgG polyclonal antibody was chemically linked to a CM5 chip. Anti-NGF monoclonal antibodies were injected forming a surface of about 50 to 900 RU of immobilized antibody through the interaction with the chip coupled polyclonal antibodies. NGF or NT-3 protein at a concentration of 20 nM was injected over the surface, followed by a buffer wash to allow bound ligand to dissociate. Both association and dissociation phases were monitored and data were analyzed. Results are shown in Table 3 (NB=no binding activity observed).

C57BL/6 mice = experiment: Post-operative incision pain model, weight bearing test; type: in vivo, mouse; details: for mean percent weight distribution on affected limb: Table 15
Experimental: Post-operative incision pain model. A rodent model of post-operative pain in which a hind paw plantar incision causes increased sensitivity to touch, guarding behavior, and thermal hyperalgesia, was used to study the efficacy of anti-NGF antibody therapy. For the plantar incision surgery, C57BL/6 mice under isoflurane received an incision through skin, fascia and then isolating the underlying flexor muscle and bisecting vertically. After suture and recovery, the mice were tested for thermal hyperalgesia in the Hargreaves' test and for guarding behavior in the weight bearing test (model 600, IITC Life Science) for 5 days.

NGF [5] = biological target: T3, NGF; experiment: BIACORE surface kinetics, binding affinity for human NGF
Experimental: Antigen binding affinities of the antibodies for human NGF were determined by surface kinetics using a real-time biosensor surface plasmon resonance assay (BIACORE™). Antibodies were captured on either a goat, anti-human or anti-mouse IgG polyclonal antibody surface created by direct amine coupling of the capture antibody to a BIACORE™ chip. Various concentrations of human NGF were injected over the captured antibody surfaces while the association of the antigen to the antibody and the dissociation of the bound complex were monitored in real time. Kinetic analysis was performed to obtain the equilibrium dissociation constant (KD) and dissociation rate constant, and the latter was used to calculate the antigen/antibody complex dissociation t1/2 (Table 1).
Antigen binding affinities of selected purified antibodies for NGF were also determined by surface kinetics employing a real-time biosensor surface plasmon resonance assay (BIACORE™) as described above. For convenience, antibody 301272-3H10-A10 was renamed “REGN261” (HCVR/LCVR SEQ ID NOs:84/92 and hIgG1 SEQ ID NO:541); 301272-6E07-D10 was renamed “REGN263” (HCVR/LCVR SEQ ID NO:208/216 and hIgG1 SEQ ID NO:541).

human NT-3 = biological target: T4, human NT-3 (Homo sapiens, UniProt P20783); experiment: BIACORE cross-reactivity test, NT-3; type: binding; details: NT-3 1.25 nM to 40 nM; purified antibodies
T4 sequence (P20783 139-257): T1 sequence (P20783 139-257)
Experimental: as §1, with “NGF or NT-3 protein at a concentration of 20 nM was injected over the surface, followed by a buffer wash to allow bound ligand to dissociate.” left out

tanezumab [RN624]
% Binding p75-hFc [1]: 16%
IC50 [2]: ~105000 pM
IC50 ([3]; Table 10, 12.5 pM human NGF, 6 hours, read-out: PC12 IC50): 21 pM
IC50 ([3]; Table 11, selected purified antibodies, PC12 luciferase, read-out: IC50): 4.9 pM
Kd (NGF [4]): 1.3 pM
reduction of post-operative pain vs vehicle, weight bearing test (C57BL/6 mice; 10 mg/kg s.c. 1 hr prior to incision, p<0.001-0.05): significantly reduced the post-operative pain
mean percent weight distribution on affected limb (C57BL/6 mice; 10 mg/kg s.c. pre-incision, Day 0, ±SEM): 49.0 ± 0.5%
mean percent weight distribution on affected limb (C57BL/6 mice; 10 mg/kg, Day 1 after surgery): 44.8 ± 1.9%
mean percent weight distribution on affected limb (C57BL/6 mice; 10 mg/kg, Day 2 after surgery): 42.7 ± 1.8%
mean percent weight distribution on affected limb (C57BL/6 mice; 10 mg/kg, Day 3 after surgery): 48.7 ± 1.9%
mean percent weight distribution on affected limb (C57BL/6 mice; 10 mg/kg, Day 4 after surgery): 47.2 ± 1.2%
mean percent weight distribution on affected limb (C57BL/6 mice; 10 mg/kg, Day 5 after surgery): 49.7 ± 0.7%
Kd (NGF [5]; Table 1, read-out: KD): 1.3 pM
Kd (NGF [5]; Table 2, selected purified antibodies, read-out: KD): 1.25 pM
Kd (NGF [5]; Table 5, read-out: Human NGF KD): 1.25 pM
Kd (NGF [5]; Table 6, selected purified antibodies, read-out: NGF KD): 1.25 pM
Kd (human NT-3): 1100 pM
